B1: Phospholipid-transporting ATPase accessory subunit LEM3 (Saccharomyces cerevisiae), P42838 (parent)
chain: MVNFDLGQVGEVFRRKDKGAIVSGDNPEEEEDVDASEFEEDEVKPVRTKNRRPKEDAFTQQRLAAINPVLTPRTVLPLYLLIAVVFVIVGGCILAQNSKVDEVTIYYQDCMTNATSSWSDIPSEHWQFVFHKYKTYNTAPQWRFVDDESDDFTKQRGTCQIRFTTPSDMKNNVYLNYVLEKFAANHRRYVLSFSEDQIRGEDASYETVHDATGINCKPLSKNADGKIYYPCGLIANSMFNDTFPLQLTNVGDTSNNYSLTNKGINWESDKKRYKKTKYNYTQIAPPPYWEKMYPDGYNETNIPDIQDWEEFQNWMRPGAFDKITKLIRINKNDTLPAGEYQLDIGLHWPVLEFNGKKGIYLTHGSHLGGRNPFLGIVYLIGGCICAAMALILLTFWLFGGRKIADASSLSWNMK

Variants of: B1
Conditions: with atc5_yeast DNF1, P32660
Chain of atc5_yeast DNF1, P32660 (P32660 whole entry): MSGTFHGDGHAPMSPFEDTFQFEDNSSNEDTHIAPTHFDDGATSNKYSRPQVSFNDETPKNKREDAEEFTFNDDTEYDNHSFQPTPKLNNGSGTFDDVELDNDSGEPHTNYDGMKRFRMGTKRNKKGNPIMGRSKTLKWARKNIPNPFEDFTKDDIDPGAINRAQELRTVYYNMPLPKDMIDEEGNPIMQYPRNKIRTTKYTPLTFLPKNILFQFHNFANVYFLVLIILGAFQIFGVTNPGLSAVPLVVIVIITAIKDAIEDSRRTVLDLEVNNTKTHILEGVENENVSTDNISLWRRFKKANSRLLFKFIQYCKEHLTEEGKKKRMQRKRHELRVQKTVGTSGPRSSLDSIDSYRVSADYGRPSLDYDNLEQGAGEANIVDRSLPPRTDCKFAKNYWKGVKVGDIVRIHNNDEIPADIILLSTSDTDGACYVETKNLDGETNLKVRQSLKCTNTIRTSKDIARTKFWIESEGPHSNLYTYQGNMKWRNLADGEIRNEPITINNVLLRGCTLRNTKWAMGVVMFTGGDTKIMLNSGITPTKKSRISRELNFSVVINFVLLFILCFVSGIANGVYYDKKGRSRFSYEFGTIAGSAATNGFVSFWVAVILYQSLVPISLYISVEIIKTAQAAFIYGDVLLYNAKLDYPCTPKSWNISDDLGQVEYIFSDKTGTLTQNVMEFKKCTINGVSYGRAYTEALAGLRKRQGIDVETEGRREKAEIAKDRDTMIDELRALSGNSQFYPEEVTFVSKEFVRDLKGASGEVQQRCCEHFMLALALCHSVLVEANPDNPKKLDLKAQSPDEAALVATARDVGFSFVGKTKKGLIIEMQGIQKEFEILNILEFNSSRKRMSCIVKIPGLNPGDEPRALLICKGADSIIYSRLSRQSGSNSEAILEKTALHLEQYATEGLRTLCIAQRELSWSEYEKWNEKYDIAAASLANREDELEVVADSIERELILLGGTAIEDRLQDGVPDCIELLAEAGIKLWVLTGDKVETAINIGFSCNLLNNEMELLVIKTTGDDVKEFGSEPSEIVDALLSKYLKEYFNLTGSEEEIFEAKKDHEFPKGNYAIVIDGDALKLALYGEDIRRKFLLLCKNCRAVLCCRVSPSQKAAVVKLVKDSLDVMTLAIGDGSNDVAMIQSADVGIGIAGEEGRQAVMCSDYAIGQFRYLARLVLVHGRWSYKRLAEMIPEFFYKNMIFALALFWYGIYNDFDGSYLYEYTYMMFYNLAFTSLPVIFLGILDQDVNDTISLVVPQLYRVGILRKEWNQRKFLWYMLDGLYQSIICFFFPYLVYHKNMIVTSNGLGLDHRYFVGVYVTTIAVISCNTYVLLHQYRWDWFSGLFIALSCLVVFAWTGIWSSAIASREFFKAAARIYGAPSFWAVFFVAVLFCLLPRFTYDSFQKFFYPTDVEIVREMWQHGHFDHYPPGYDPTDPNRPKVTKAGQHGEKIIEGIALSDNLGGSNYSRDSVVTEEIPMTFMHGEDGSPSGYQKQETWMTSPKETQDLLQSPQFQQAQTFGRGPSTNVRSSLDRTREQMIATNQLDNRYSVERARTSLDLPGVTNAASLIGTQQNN

| effect of a mutation on the interaction | Variant |
| --- | --- |
| with no effect | R316W |

Variants of: B1
Conditions: with atc4_yeast DNF2, Q12675
Chain of atc4_yeast DNF2, Q12675 (Q12675 whole entry): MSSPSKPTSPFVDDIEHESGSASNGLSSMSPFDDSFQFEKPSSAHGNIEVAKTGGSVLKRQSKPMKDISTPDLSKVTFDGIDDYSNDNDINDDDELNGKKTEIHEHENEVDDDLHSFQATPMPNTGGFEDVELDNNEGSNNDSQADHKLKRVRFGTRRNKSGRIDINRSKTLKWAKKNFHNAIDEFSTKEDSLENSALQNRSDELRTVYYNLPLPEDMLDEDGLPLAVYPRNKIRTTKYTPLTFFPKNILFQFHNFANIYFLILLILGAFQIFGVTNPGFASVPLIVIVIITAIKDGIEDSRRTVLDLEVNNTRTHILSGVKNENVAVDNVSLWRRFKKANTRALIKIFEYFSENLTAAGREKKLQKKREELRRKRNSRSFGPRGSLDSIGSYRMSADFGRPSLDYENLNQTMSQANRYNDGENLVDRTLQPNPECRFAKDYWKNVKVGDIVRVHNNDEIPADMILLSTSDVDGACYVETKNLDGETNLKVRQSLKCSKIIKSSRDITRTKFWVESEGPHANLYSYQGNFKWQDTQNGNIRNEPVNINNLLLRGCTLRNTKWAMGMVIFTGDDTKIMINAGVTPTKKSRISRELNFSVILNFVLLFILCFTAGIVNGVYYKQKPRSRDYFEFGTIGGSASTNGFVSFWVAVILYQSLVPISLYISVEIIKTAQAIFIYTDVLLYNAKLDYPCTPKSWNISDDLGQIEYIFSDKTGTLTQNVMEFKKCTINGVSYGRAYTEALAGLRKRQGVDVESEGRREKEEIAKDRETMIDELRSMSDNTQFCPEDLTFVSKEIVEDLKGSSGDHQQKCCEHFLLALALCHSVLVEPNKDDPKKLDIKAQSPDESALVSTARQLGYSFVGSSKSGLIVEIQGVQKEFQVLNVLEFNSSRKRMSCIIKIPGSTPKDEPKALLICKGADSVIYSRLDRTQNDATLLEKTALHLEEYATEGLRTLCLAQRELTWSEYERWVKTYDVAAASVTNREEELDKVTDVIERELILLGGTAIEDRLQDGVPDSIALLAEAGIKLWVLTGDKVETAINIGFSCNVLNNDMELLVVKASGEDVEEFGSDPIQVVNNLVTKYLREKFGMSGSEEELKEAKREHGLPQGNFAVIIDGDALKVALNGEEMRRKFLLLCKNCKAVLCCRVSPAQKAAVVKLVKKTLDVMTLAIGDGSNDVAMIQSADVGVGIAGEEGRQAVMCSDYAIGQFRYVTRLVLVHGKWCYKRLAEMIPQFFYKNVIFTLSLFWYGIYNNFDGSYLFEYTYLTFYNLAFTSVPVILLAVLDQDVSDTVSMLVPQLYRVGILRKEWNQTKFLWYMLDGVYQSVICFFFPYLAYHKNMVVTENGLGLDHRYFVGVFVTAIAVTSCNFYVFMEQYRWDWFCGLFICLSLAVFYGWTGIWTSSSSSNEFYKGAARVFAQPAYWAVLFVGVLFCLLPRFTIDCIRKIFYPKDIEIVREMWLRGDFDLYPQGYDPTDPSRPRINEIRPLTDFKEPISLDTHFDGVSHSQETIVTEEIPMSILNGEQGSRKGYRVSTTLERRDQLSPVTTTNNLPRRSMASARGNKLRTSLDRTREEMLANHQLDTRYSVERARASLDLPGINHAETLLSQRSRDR

| effect of a mutation on the interaction | Variant |
| --- | --- |
| with no effect | R316W |
